Reference: patent US20100016226A1
“And” between values parts separate entries of the source, which are not always exact repeats. Identical values can stand only once. Where no end group is shown, it is not given here. The star is where a group is joined. 125I = [125I]*

Assays:
[1] = biological target: UAG binding sites on human CAC (circulating angiogenic cell) membranes (human); experiment: saturation radioligand binding on CAC membranes
[2] = biological target: UAG binding sites on human CAC (circulating angiogenic cell) membranes (human); experiment: radioligand binding to fresh CAC membranes, two cell preparations
[3] = biological target: UAG binding sites on human CAC (circulating angiogenic cell) membranes (human); experiment: saturation radioligand binding on CAC membranes, Scatchard analysis
[4] = biological target: UAG binding sites on human CAC (circulating angiogenic cell) membranes (human); experiment: radioligand binding to frozen-thawed CAC membranes, two cell preparations
[5] = biological target: UAG binding sites on human CAC (circulating angiogenic cell) membranes (human); experiment: radioligand binding to CAC membranes; binding without minus binding with 100 nM unlabelled UAG

Binder: GSSY(125I)LSPEHQRVQQRKESKKPPAKLQPR [[125I-Tyr4]-UAG]
- radioligand concentration at maximal specific binding [1]: 2 nM
- specific binding, fresh CAC membranes [2]: 0.25 fmol and 0.26 fmol
- Bmax (fmol/mg membrane protein) [3]: 10.7
- Kd [3]: 0.48 nM
- specific binding, frozen-thawed CAC membranes [4]: 0.2 fmol and 0.33 fmol
- specific binding, percent of control value [5]: 75%
